Experimental data taken from publication doi:10.64898/2025.12.06.692711.

Tests used:
[1] = target: HTkC R45A (Thermococcus kodakarensis); assay: SEC-MALS
[2] = target: HTkC (TK1040), face-to-face (FtF) histone from Thermococcus kodakarensis (Thermococcus kodakarensis); assay: SEC-MALS

Work on HTkC R45A (natural protein) yielded a stoichiometry N [1] of 2.
With “HTkC (TK1040), face-to-face (FtF) histone from Thermococcus kodakarensis (natural protein)” the stoichiometry N [2] was 4.
